± gives the uncertainty stated by the source.
Assay: amyloid nucleation score (Sup35N fusion, yeast selection) (log enrichment); library NNK1; higher = more nucleation; inactive = no reads after selection
In short: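 Plasmid inserts were Illumina-sequenced at input and output from psi-negative yeast expressing Sup35N fused to peptides of 20 random codons. The yeast were induced with 100 μM copper sulfate for 24 hours and grown 7 days at 30°C on medium lacking adenine and uracil, and sequences with under 100 input reads were excluded. Nucleation score is the DiMSum log enrichment of output over input reads, centred on the mode score of non-aggregating sequences.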

Going from STWIHQMRSMASAENFSCYS to IYLMIGHWESNNKLNICVLP, the amyloid nucleation score rises from -1.27 ± 0.63 to 3.7 ± 0.11.

KLFESYVLSRGMVPETVKAV and DIIIWSSSRHYNVNCKSNSA are within error of each other in amyloid nucleation score: 0.226 ± 0.78 for the first, 0.55 ± 0.18 for the second.

KVSYRMRASPRSKILVIRKS and ETRTSTETRPCKLWFYDRM are within error of each other in amyloid nucleation score: 0.43 ± 0.72 for the first, -0.718 ± 1.2 for the second.

First: KHLYVR
Second: TFLWC
The amyloid nucleation score of the first is lower: -0.752 ± 0.56 for the first, 0.462 ± 0.4 for the second.

RSLALEKLCSWSV and PWISFTKYKTLSYETHPGWF are within error of each other in amyloid nucleation score: -1.38 ± 2.7 for the first, 0.544 ± 0.79 for the second.

KSRSRLPCTRSHTIEFVRMR and GYCVLVTLLGNTNEYPAGCP are within error of each other in amyloid nucleation score: 0.831 ± 0.56 for the first, 0.563 ± 0.41 for the second.

Going from DCMFYVDRTGRSIGVVSIVE to RLNRVSVLLFPTFDLPPFLE, the amyloid nucleation score rises from -0.021 ± 0.28 to 2.68 ± 0.098.

DINFNDGICGIKLYCYCISN and LVTCLLHAG are within error of each other in amyloid nucleation score: -0.713 ± 1.7 for the first, -1.38 ± 0.58 for the second.

WDCYCPWLTLKYEAGLRTSG and VSCQHTVFKVICSYLPHLCK are within error of each other in amyloid nucleation score: -1.17 ± 1.9 for the first, 0.666 ± 0.59 for the second.

GGFFYMWRYRLCRLGKFGAP and IYLCLATYFLYPRLVWTSTL are within error of each other in amyloid nucleation score: -0.76 ± 0.6 for the first, 0.521 ± 0.72 for the second.

Going from SIVMGSVMTFGFDIFL to LGLDTEVVGPGPGGYHLWQK, the amyloid nucleation score falls from 4.47 ± 0.066 to 0.112 ± 0.27.

LFWLKKNILLDRIHLP and AIYIVVEI are within error of each other in amyloid nucleation score: -0.172 ± 0.4 for the first, -0.764 ± 1.2 for the second.

KLQVGSPN and SVFNGYQSLVICFLRVSACC are within error of each other in amyloid nucleation score: -0.053 ± 1.4 for the first, 0.154 ± 1 for the second.

CTWWSMWNNNWDKFLTREQL and MCDGTFCGSSSGHCSASLRH are within error of each other in amyloid nucleation score: 0.19 ± 1.1 for the first, 0.728 ± 0.35 for the second.

PCRGL and GASWNCAQYRMMD are within error of each other in amyloid nucleation score: -0.628 ± 2.1 for the first, -0.338 ± 1.7 for the second.

FFYMDKLLCAQSPVRIFR and AYNIVDRSYLGSCKPESFVG are within error of each other in amyloid nucleation score: 0.837 ± 0.84 for the first, 0.469 ± 0.44 for the second.

NMRTNQDKSCGCCQLPVQAG and QRISWDFSWCRASWMPNLR are within error of each other in amyloid nucleation score: -0.119 ± 1.2 for the first, 0.062 ± 0.34 for the second.

First: VSNRTVNDGYGSSGAALCLR
Second: MNYFVMSHSNKLDASLCWRR
The amyloid nucleation score of the first is lower: 0.099 ± 0.44 for the first, 1.52 ± 0.25 for the second.

First: RYRNVVRSFFNEYRLCPGIE
Second: LWLNLILCFQWDPQRKC
The amyloid nucleation score of the first is lower: -0.235 ± 1.4 for the first, 4.09 ± 0.11 for the second.

ADRRLW and FYIMTLGYCSWFSVGKRLSP are within error of each other in amyloid nucleation score: -0.04 ± 0.32 for the first, -0.551 ± 0.43 for the second.

First: CVTLTCLLSSIV
Second: NLVALNLSNTFPDDV
The amyloid nucleation score of the first is higher: 1.84 ± 0.12 for the first, 0.04 ± 0.82 for the second.

Going from DPVYGLYGALFAMNPFMDYL to MRLIVNSFTVGYEPRISWYV, the amyloid nucleation score rises from -0.427 ± 0.56 to 1.22 ± 0.24.

Going from VAPQGNPMWSKDLL to WWRIIGTEAQNMGG, the amyloid nucleation score falls from 1.8 ± 0.18 to 0.631 ± 0.55.

Compared with SFEDLEM, YTASMTIFLDLLP is higher in amyloid nucleation score: 0.457 ± 0.85 for the first, 2.07 ± 0.15 for the second.

KKGLSKMVKPVYSCLN and LFTFIGAVCFILNIACSLFF are within error of each other in amyloid nucleation score: -1 ± 1.6 for the first, 1.05 ± 0.58 for the second.

CLTSRQMMQKLMRYIKNDLG and VRSLARNG are within error of each other in amyloid nucleation score: -0.051 ± 0.32 for the first, 0.947 ± 0.7 for the second.

TAIRLVQS and KNHYYFA are within error of each other in amyloid nucleation score: -0.283 ± 0.44 for the first, -0.203 ± 0.38 for the second.

Compared with PFLFVEIYDNGGSW, YKTYMFYCTSFQSGPCSRLI is lower in amyloid nucleation score: 1.36 ± 0.37 for the first, -0.634 ± 0.35 for the second.

First: SKCNFVHSRLGIALQYETRL
Second: IYFFIPFSPVGDTDRSFWGY
The amyloid nucleation score of the first is higher: 3.56 ± 0.1 for the first, -0.059 ± 0.98 for the second.

KWIRRRTDIFELSRLVWMGW and YTSTIKYLVYNN are within error of each other in amyloid nucleation score: -0.694 ± 0.58 for the first, -1.08 ± 0.94 for the second.

Work on SLPNILLSQPMFRRISSMLQ yielded an amyloid nucleation score of 1.17 ± 0.62.

For PALKYFEAVVH, the amyloid nucleation score was “inactive”.
For CYNNF, the amyloid nucleation score was “inactive”.
